Publication PMC9015690 (Science signaling, 2021)

Biological target: Wild type CXCL12 (CXCL12-WT) (UniProt P48061-2 22-89)
Experiment: ITC

Sequence of Wild type CXCL12 (CXCL12-WT) (P48061 22-89): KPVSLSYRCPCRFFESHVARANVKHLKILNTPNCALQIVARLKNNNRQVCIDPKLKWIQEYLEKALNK

B1: ACKR1^N-term, sixty-amino acid peptide corresponding to the extracellular N-terminus of ACKR1 (domain or fragment, UniProt Q16570 1-60, looked up)
chain: MGNALHRAELSPSTENSSQLDFEDVWNSSYGVNDSFPDGDYGANLEAAAPAHSANLLDDS
B1 was tested, and the Kd was 4 µM and the “stoichiometry N” value was roughly 0.5.
